From patent publication US20100196266A1

Legend:
[1] = target: human CD20 on cells (human) (UniProt P11836); test: flow cytometry, Granta-519 (MCL) cells; no mAb 15.3
[2] = target: canine CD20 on dog lymphocytes and lymphoma cells (dog) (UniProt Q3C2E2); test: flow cytometry, canine lymphoma aspirate 150836; none 3.9
[3] = target: canine CD20 on dog lymphocytes and lymphoma cells (dog) (UniProt Q3C2E2); test: flow cytometry, dog lymphoma aspirate; none 3.85
[4] = target: canine CD20 on dog lymphocytes and lymphoma cells (dog) (UniProt Q3C2E2); test: flow cytometry, canine lymphoma aspirate 150836; none 3.4
[5] = target: human CD20 on cells (human) (UniProt P11836); test: flow cytometry, Jeko-1 (MCL) cells; no mAb 14.3
[6] = target: canine CD20 on dog lymphocytes and lymphoma cells (dog) (UniProt Q3C2E2); test: flow cytometry, dog lymphoma aspirate; none 3.37
[7] = target: human CD20 on cells (human) (UniProt P11836); test: flow cytometry, 697 (ALL) cells; no mAb 4.9
[8] = target: human CD20 on cells (human) (UniProt P11836); test: flow cytometry, WAC (CLL) cells; no mAb 15.8
[9] = target: human CD20 on cells (human) (UniProt P11836); test: flow cytometry, K562 (CML) cells; no mAb 3.2
[10] = target: human CD20 on cells (human) (UniProt P11836); test: flow cytometry, Kasumi-1 (AML) cells; no mAb 18.2
[11] = target: human CD20 on cells (human) (UniProt P11836); test: indirect flow cytometry, Namalwa cells, FITC-GAM; none 2.91
[12] = target: human CD20 on cells (human) (UniProt P11836); test: flow cytometry, GDM-1 (AML) cells; no mAb 16.8
[13] = target: human CD20 on cells (human) (UniProt P11836); test: flow cytometry, REH (ALL) cells; no mAb 3.9
[14] = target: human CD20 on cells (human) (UniProt P11836); test: flow cytometry, RS4;11 (ALL) cells; no mAb 6.4
[15] = target: human CD20 on cells (human) (UniProt P11836); test: flow cytometry, Kasumi-3 (AML) cells; no mAb 9.6
[16] = target: human CD20 on cells (human) (UniProt P11836); test: flow cytometry, MN60 (ALL) cells; no mAb 8.1
[17] = target: human CD20 on cells (human) (UniProt P11836); test: flow cytometry, MEC-1 (CLL) cells; no mAb 4.7
[18] = target: human CD20 on cells (human) (UniProt P11836); test: flow cytometry, HC-1 (hairy cell leukemia) cells; no mAb 4.8
[19] = target: canine CD22 on dog lymphocytes and lymphoma cells (dog); test: flow cytometry, canine lymphoma aspirate 150836; none 3.9
[20] = target: canine CD22 on dog lymphocytes and lymphoma cells (dog); test: flow cytometry, dog lymphoma aspirate; none 3.85
[21] = target: canine CD22 on dog lymphocytes and lymphoma cells (dog); test: flow cytometry, canine lymphoma aspirate 150836; none 3.4
[22] = target: canine CD22 on dog lymphocytes and lymphoma cells (dog); test: flow cytometry, dog lymphoma aspirate; none 3.37
[23] = target: canine CD22 on dog lymphocytes and lymphoma cells (dog); test: flow cytometry, dog lymphoma aspirate; none 4.48
[24] = target: canine CD22 on dog lymphocytes and lymphoma cells (dog); test: flow cytometry, canine lymphoma aspirate 150836; none 3.2
[25] = target: canine CD22 on dog lymphocytes and lymphoma cells (dog); test: flow cytometry, dog lymphoma aspirate; none 3.24
[26] = target: canine CD22 on dog lymphocytes and lymphoma cells (dog); test: flow cytometry, canine lymphoma aspirate 150836; none 4.5
[27] = target: human leukocyte antigen-DR (HLA-DR) on human lymphoma and leukemia cell lines and human lymphocytes (human); test: indirect flow cytometry, Namalwa cells, FITC-GAH; none 2.52; irrelevant antibody
[28] = target: human leukocyte antigen-DR (HLA-DR) on human lymphoma and leukemia cell lines and human lymphocytes (human); test: indirect flow cytometry, Namalwa cells, FITC-GAM; none 2.91; irrelevant antibody
[29] = target: human leukocyte antigen-DR (HLA-DR) on human lymphoma and leukemia cell lines and human lymphocytes (human); test: flow cytometry, MN60 (ALL) cells; no mAb 8.1; isotype control
[30] = target: human leukocyte antigen-DR (HLA-DR) on human lymphoma and leukemia cell lines and human lymphocytes (human); test: flow cytometry, Jeko-1 (MCL) cells; no mAb 14.3; isotype control
[31] = target: human leukocyte antigen-DR (HLA-DR) on human lymphoma and leukemia cell lines and human lymphocytes (human); test: flow cytometry, K562 (CML) cells; no mAb 3.2; isotype control
[32] = target: human leukocyte antigen-DR (HLA-DR) on human lymphoma and leukemia cell lines and human lymphocytes (human); test: flow cytometry, WAC (CLL) cells; no mAb 15.8; isotype control
[33] = target: antigen recognised by L243 on canine lymphocytes and canine lymphoma cells (HLA-DR of the dog) (dog); test: flow cytometry, dog lymphoma aspirate; none 3.37; control antibody
[34] = target: human leukocyte antigen-DR (HLA-DR) on human lymphoma and leukemia cell lines and human lymphocytes (human); test: flow cytometry, GDM-1 (AML) cells; no mAb 16.8; isotype control
[35] = target: antigen recognised by L243 on canine lymphocytes and canine lymphoma cells (HLA-DR of the dog) (dog); test: flow cytometry, canine lymphoma aspirate 150836; none 3.4; control antibody
[36] = target: antigen recognised by L243 on canine lymphocytes and canine lymphoma cells (HLA-DR of the dog) (dog); test: flow cytometry, canine lymphoma aspirate 150836; none 3.9; control antibody
[37] = target: antigen recognised by L243 on canine lymphocytes and canine lymphoma cells (HLA-DR of the dog) (dog); test: flow cytometry, dog lymphoma aspirate; none 3.85; control antibody
[38] = target: human leukocyte antigen-DR (HLA-DR) on human lymphoma and leukemia cell lines and human lymphocytes (human); test: flow cytometry, Kasumi-3 (AML) cells; no mAb 9.6; isotype control
[39] = target: human leukocyte antigen-DR (HLA-DR) on human lymphoma and leukemia cell lines and human lymphocytes (human); test: flow cytometry, 697 (ALL) cells; no mAb 4.9; isotype control
[40] = target: human leukocyte antigen-DR (HLA-DR) on human lymphoma and leukemia cell lines and human lymphocytes (human); test: flow cytometry, MEC-1 (CLL) cells; no mAb 4.7; isotype control
[41] = target: human leukocyte antigen-DR (HLA-DR) on human lymphoma and leukemia cell lines and human lymphocytes (human); test: flow cytometry, Granta-519 (MCL) cells; no mAb 15.3; isotype control
[42] = target: human leukocyte antigen-DR (HLA-DR) on human lymphoma and leukemia cell lines and human lymphocytes (human); test: indirect flow cytometry, Namalwa cells, FITC-GAM; none 2.91; control antibody
[43] = target: human leukocyte antigen-DR (HLA-DR) on human lymphoma and leukemia cell lines and human lymphocytes (human); test: flow cytometry, REH (ALL) cells; no mAb 3.9; isotype control
[44] = target: human leukocyte antigen-DR (HLA-DR) on human lymphoma and leukemia cell lines and human lymphocytes (human); test: flow cytometry, Kasumi-1 (AML) cells; no mAb 18.2; isotype control
[45] = target: human leukocyte antigen-DR (HLA-DR) on human lymphoma and leukemia cell lines and human lymphocytes (human); test: flow cytometry, RS4;11 (ALL) cells; no mAb 6.4; isotype control
[46] = target: human leukocyte antigen-DR (HLA-DR) on human lymphoma and leukemia cell lines and human lymphocytes (human); test: flow cytometry, HC-1 (hairy cell leukemia) cells; no mAb 4.8; isotype control

human CD20 on cells (human), sequence (P11836 whole entry): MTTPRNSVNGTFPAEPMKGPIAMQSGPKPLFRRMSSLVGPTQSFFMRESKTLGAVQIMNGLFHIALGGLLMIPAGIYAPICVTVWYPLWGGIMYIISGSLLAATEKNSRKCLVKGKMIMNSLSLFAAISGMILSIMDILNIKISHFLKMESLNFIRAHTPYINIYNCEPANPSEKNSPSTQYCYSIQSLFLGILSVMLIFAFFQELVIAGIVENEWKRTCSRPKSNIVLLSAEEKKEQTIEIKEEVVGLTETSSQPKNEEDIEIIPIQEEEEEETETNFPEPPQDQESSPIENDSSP
canine CD20 on dog lymphocytes and lymphoma cells (dog), sequence (Q3C2E2 whole entry): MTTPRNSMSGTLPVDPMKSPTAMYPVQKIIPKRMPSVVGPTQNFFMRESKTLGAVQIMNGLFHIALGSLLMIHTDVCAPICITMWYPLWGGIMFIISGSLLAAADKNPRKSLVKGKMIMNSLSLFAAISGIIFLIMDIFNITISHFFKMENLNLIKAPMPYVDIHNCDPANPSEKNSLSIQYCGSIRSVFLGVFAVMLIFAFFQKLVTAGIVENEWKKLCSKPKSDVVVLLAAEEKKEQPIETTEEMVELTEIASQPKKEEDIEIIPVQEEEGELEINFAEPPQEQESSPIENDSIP

## 2B8 (murine anti-CD20 mAb) (antibody)
[1]
  mean FL: 677
[2]
  % Positive: 2.6%
[3]
  % Positive: 2.61%
[4]
  mean FL: 3.1
[5]
  mean FL: 455
[6]
  mean FL: 3.11
[7]
  mean FL: 6.9
[8]
  mean FL: 275
[9]
  mean FL: 4.3
[10]
  mean FL: 14.5
[11]
  GEO MEAN Fluorescence: 6.16
[12]
  mean FL: 15.6
[13]
  mean FL: 23.5
[14]
  mean FL: 11.5
[15]
  mean FL: 11
[16]
  mean FL: 162
[17]
  mean FL: 175
[18]
  mean FL: 42.2

## murine LL2 (anti-human CD22) (antibody)
[19]
  % Positive: 5.1%
[20]
  % Positive: 5.05%
[21]
  mean FL: 3.7
[22]
  mean FL: 3.73

## epratuzumab (hLL2, humanized anti-CD22 mAb) (antibody)
[23]
  % Positive: 4.85%
[24]
  mean FL: 3.4
[25]
  mean FL: 3.37
[26]
  % Positive: 4.9%

## hRS7 (humanized anti-EGP-1) (antibody)
[27]
  GEO MEAN Fluorescence: 2.47

## murine RS7 (antibody)
[28]
  GEO MEAN Fluorescence: 3.39

## Ag8 (P3x63 Ag8, murine myeloma derived mAb) (antibody)
[29]
  mean FL: 10.5
[30]
  mean FL: 17.4
[31]
  mean FL: 4.1
[32]
  mean FL: 14.4
[33]
  mean FL: 3.04
[34]
  mean FL: 20.1
[35]
  mean FL: 3
[36]
  % Positive: 2.8%
[37]
  % Positive: 2.81%
[38]
  mean FL: 15.7
[39]
  mean FL: 5.6
[40]
  mean FL: 6
[41]
  mean FL: 16.9
[42]
  GEO MEAN Fluorescence: 3.64
[43]
  mean FL: 3.9
[44]
  mean FL: 17
[45]
  mean FL: 8.6
[46]
  mean FL: 3.5
